± gives the uncertainty stated by the source.
Test: self-splicing fitness, log relative to wild type (ln ratio); higher = more splicing; Tetrahymena group I intron in knt gene, E. coli kanamycin selection, DiMSum; sequences stand for … in CUCUCU…GGAGGGAAAAGUUAUCAGGCAUGCACCUGGUAGCUAGUCUUUAAACCAAUAGAUUGCAUCGGUUUAAAAGGCAAGACCGUCAAAUUGCGGGAAAGGGGUCAACAGCCGUUCAGUACCAAGUCUCAGGGGAAACUUUGAGAUGGCCUUGCAAAGGGUAUGGUAAUAAGCUGACGGACAUGGUCCUAACCACGCAGCCAAGUCCUAAGUCAACAGAUCUUCUGUUGAUAUGGAUGCAGUUCACAGACUAAAUGUCGGUCGGGGAAGAUGUAUUCUUCUCAUAAGAUAUAGUCGGACCUCUCCUUAAUGGGAGCUAGCGGAUGAAGUGAUGCAACACUGGAGCCGCUGGGAACUAAUUUGUAUGCGAAAGUAUAUUGAUUAGUUUUGGAGUACUCGUGGUCG
Summary of the method: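 Colonies from six replicate transformations of E. coli BL21(DE3) were pooled and amplicon-sequenced on an Illumina HiSeq 2500. The library placed an intron with all eight P1ex-region nucleotides randomised inside the knt kanamycin-resistance gene on pET-22b(+), and cells grew overnight at 37°C or 30°C on LB agar with or without 25 μg/mL kanamycin (plus 100 μg/mL carbenicillin, 50 μM IPTG, 0.2% rhamnose). Fitness is the DiMSum error-weighted combination of wild-type-normalised replicate fold changes, kanamycin versus none.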

| Sequence | self-splicing fitness (ln) (30 °C) | self-splicing fitness (ln) (37 °C) |
| --- | --- | --- |
| CUAAAGCAAUAUUACGCGUA | -3.35 ± 0.18 | -2.63 ± 0.21 |
| CUAAAGCAAUAUUACGCUAA | -5.16 ± 0.45 |  |
| CUAAAGCAAUAUUACGGCUA | -3.85 ± 0.21 | -2.34 ± 0.25 |
| CUAAAGCAAUAUUACGGGCU | -4.47 ± 0.18 | -2.59 ± 0.16 |
| CUAAAGCAAUAUUACGGGGA | -3.4 ± 0.16 | -1.96 ± 0.16 |
| CUAAAGCAAUAUUACGUAGC | -3.73 ± 0.2 | -2.94 ± 0.37 |
| CUACAGCAAUAUUACGAACA | -2.94 ± 0.18 | -2.49 ± 0.21 |
| CUACAGCAAUAUUACGAAUG | -0.558 ± 0.059 | -0.464 ± 0.075 |
| CUACAGCAAUAUUACGACAA | -2.42 ± 0.2 | -2.19 ± 0.21 |
| CUACAGCAAUAUUACGACUG | -1.86 ± 0.087 | -0.44 ± 0.1 |
| CUACAGCAAUAUUACGAGAG | -2.79 ± 0.16 | -2.21 ± 0.18 |
| CUACAGCAAUAUUACGAUAC | -3.74 ± 0.19 | -2.58 ± 0.18 |
| CUACAGCAAUAUUACGAUUA | -2.88 ± 0.16 | -1.5 ± 0.15 |
| CUACAGCAAUAUUACGCUCA | -4.47 ± 0.42 | -2.6 ± 0.39 |
| CUACAGCAAUAUUACGCUGG | -3.11 ± 0.097 | -2.66 ± 0.15 |
| CUACAGCAAUAUUACGGAAA | -4.58 ± 0.46 | -2.9 ± 0.33 |
| CUACAGCAAUAUUACGGAGC | -3.83 ± 0.14 | -3.14 ± 0.17 |
| CUACAGCAAUAUUACGGAGU | -3.21 ± 0.13 | -2.89 ± 0.16 |
| CUACAGCAAUAUUACGGCAA | -3.24 ± 0.24 | -2.79 ± 0.23 |
| CUACAGCAAUAUUACGGCCG | -0.378 ± 0.091 | -0.0396 ± 0.11 |
| CUACAGCAAUAUUACGGCCU | -4.36 ± 0.33 | -1.68 ± 0.21 |
| CUACAGCAAUAUUACGGUAU | -2.43 ± 0.08 | -1.31 ± 0.096 |
| CUACAGCAAUAUUACGGUGA | -1.61 ± 0.081 | -0.453 ± 0.092 |
| CUACAGCAAUAUUACGUAAC | -3.34 ± 0.16 | -2.03 ± 0.21 |
| CUACAGCAAUAUUACGUAGU | -3.43 ± 0.14 | -2.49 ± 0.2 |
| CUACAGCAAUAUUACGUAUG | -2.21 ± 0.09 | -1.35 ± 0.091 |
| CUACAGCAAUAUUACGUGAU | -2.01 ± 0.063 | -1.18 ± 0.085 |

| Sequence | self-splicing fitness (ln) (30 °C) | self-splicing fitness (ln) (37 °C) |
| --- | --- | --- |
| CUAGAGCAAUAUUACGAACG | 0.208 ± 0.12 | 0.617 ± 0.14 |
| CUAGAGCAAUAUUACGACUA | -1.97 ± 0.12 | -1.26 ± 0.15 |
| CUAGAGCAAUAUUACGCCCA | -3.13 ± 0.33 |  |
| CUAGAGCAAUAUUACGCCGA |  | -2.06 ± 0.43 |
| CUAGAGCAAUAUUACGCGCG | -0.479 ± 0.11 | 0.603 ± 0.16 |
| CUAGAGCAAUAUUACGGAAC | -1.38 ± 0.17 |  |
| CUAGAGCAAUAUUACGGAGU | -4.15 ± 0.33 | -2.87 ± 0.43 |
| CUAGAGCAAUAUUACGGAUU |  | -3.03 ± 0.43 |
| CUAGAGCAAUAUUACGGGUA | -3.53 ± 0.36 | -2.3 ± 0.36 |
| CUAGAGCAAUAUUACGGUAG | -0.666 ± 0.12 | -0.0273 ± 0.15 |
| CUAGAGCAAUAUUACGUAGG | -1.04 ± 0.1 | 1 ± 0.14 |
| CUAGAGCAAUAUUACGUGAU | -1.85 ± 0.09 | -0.696 ± 0.1 |
| CUAGAGCAAUAUUACGUGUG | -0.455 ± 0.055 | 0.162 ± 0.08 |
| CUAGAGCAAUAUUACGUUAA | -3.73 ± 0.24 | -1.89 ± 0.28 |
| CUAUAGCAAUAUUACGACGU | -3.85 ± 0.37 | -1.96 ± 0.3 |
| CUAUAGCAAUAUUACGAGAC | -1.7 ± 0.37 |  |
| CUAUAGCAAUAUUACGAUGA | -1.92 ± 0.16 | -1.3 ± 0.17 |
| CUAUAGCAAUAUUACGCACA | -2.35 ± 0.27 | -1.89 ± 0.25 |
| CUAUAGCAAUAUUACGCAUG | -2.02 ± 0.093 | -0.942 ± 0.095 |
| CUAUAGCAAUAUUACGCCAA |  | -1.68 ± 0.49 |
| CUAUAGCAAUAUUACGCUCG | -1.74 ± 0.12 | -0.741 ± 0.14 |
| CUAUAGCAAUAUUACGCUGC | -3.11 ± 0.36 |  |
| CUAUAGCAAUAUUACGCUUG | -2.62 ± 0.25 | -2.14 ± 0.26 |
| CUAUAGCAAUAUUACGGAAA | -2.82 ± 0.2 | -2.06 ± 0.42 |
| CUAUAGCAAUAUUACGGAUC | -3.75 ± 0.4 | -2.31 ± 0.25 |
| CUAUAGCAAUAUUACGGCGG | -0.513 ± 0.12 | -0.641 ± 0.14 |
| CUAUAGCAAUAUUACGGCUG | -1.02 ± 0.12 | -0.165 ± 0.15 |

| Sequence | self-splicing fitness (ln) (30 °C) | self-splicing fitness (ln) (37 °C) |
| --- | --- | --- |
| CUAUAGCAAUAUUACGGGAU | -3.92 ± 0.25 | -0.972 ± 0.16 |
| CUAUAGCAAUAUUACGGGUC | -3.19 ± 0.29 | -2.05 ± 0.28 |
| CUAUAGCAAUAUUACGGGUG | -0.36 ± 0.061 | 0.369 ± 0.085 |
| CUAUAGCAAUAUUACGGUCA | -1.82 ± 0.19 | -1.7 ± 0.24 |
| CUAUAGCAAUAUUACGGUGA | -3.35 ± 0.18 | -2.59 ± 0.23 |
| CUAUAGCAAUAUUACGGUUC | -3.27 ± 0.25 | -2.12 ± 0.39 |
| CUAUAGCAAUAUUACGUACU | -3.66 ± 0.47 |  |
| CUAUAGCAAUAUUACGUAUU | -3.8 ± 0.32 |  |
| CUAUAGCAAUAUUACGUCAA | -3.16 ± 0.2 | -2.7 ± 0.23 |
| CUAUAGCAAUAUUACGUCGC | -3.75 ± 0.24 |  |
| CUAUAGCAAUAUUACGUGAG | -0.571 ± 0.057 | -0.137 ± 0.086 |
| CUAUAGCAAUAUUACGUGCU | -3.61 ± 0.33 | -2.56 ± 0.32 |
| CUAUAGCAAUAUUACGUGUA | -2.77 ± 0.33 | -2.55 ± 0.26 |
| CUAUAGCAAUAUUACGUUUC | -3.68 ± 0.23 | -2.86 ± 0.31 |
| CUCAAGCAAUAUUACGAAGC | -3.4 ± 0.28 | -2.56 ± 0.35 |
| CUCAAGCAAUAUUACGAGGU |  | -1.19 ± 0.18 |
| CUCAAGCAAUAUUACGAGUA | -3.49 ± 0.28 | -2.41 ± 0.23 |
| CUCAAGCAAUAUUACGAUGA | -1.31 ± 0.11 | -2.07 ± 0.16 |
| CUCAAGCAAUAUUACGCAGA | -3.06 ± 0.5 | -2.41 ± 0.21 |
| CUCAAGCAAUAUUACGCCGG | -2.92 ± 0.38 | -1.53 ± 0.31 |
| CUCAAGCAAUAUUACGCGUC | -4.33 ± 0.39 | -1.37 ± 0.16 |
| CUCAAGCAAUAUUACGCUAG | -4.26 ± 0.32 | -2.35 ± 0.14 |
| CUCAAGCAAUAUUACGCUCU | -4.12 ± 0.25 | -2.39 ± 0.21 |
| CUCAAGCAAUAUUACGGACG | -0.792 ± 0.063 | 0.266 ± 0.095 |
| CUCAAGCAAUAUUACGGAUG | -1.48 ± 0.088 | -1.05 ± 0.13 |
| CUCAAGCAAUAUUACGGCGC |  | -0.598 ± 0.19 |

From the supplement of paper PMC7877785
